Columns and labels:
Kif7-DM (1-543aa) = molecular target: T1, Kif7-DM (1-543aa) (human, UniProt Q2M1P5 1-543); experiment: cryo-EM of microtubule-bound Kif7-DM with AMP-PNP, 3.9 Å
T1 construct: As used for cryo-EM, without GFP; Expressed with a TEV-cleavable N-terminal 6xHis-SUMOstar tag; also called Kif7 dimer; dimeric Kif7
T1 sequence: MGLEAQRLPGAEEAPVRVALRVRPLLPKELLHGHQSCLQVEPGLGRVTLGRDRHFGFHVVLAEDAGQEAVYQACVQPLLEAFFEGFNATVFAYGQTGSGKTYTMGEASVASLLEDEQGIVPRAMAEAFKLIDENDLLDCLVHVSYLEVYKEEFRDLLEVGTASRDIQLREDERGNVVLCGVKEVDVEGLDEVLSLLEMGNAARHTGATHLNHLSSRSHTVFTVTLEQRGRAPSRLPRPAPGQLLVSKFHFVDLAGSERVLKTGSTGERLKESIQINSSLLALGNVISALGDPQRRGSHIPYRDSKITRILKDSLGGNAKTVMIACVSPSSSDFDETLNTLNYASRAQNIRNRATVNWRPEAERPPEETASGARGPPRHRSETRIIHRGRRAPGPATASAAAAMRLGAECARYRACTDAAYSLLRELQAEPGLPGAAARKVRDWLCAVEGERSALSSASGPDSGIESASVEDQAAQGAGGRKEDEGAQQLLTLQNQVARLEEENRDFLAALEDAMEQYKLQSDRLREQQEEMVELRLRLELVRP
Procedure: For grid preparation, all Kif7-GIi2 preparations were diluted using BRB80 (80 mM 1,4-piperazinediethanesulfonic acid [PIPES], pH 6.8, 1 mM MgCl₂, 1 mM ethylene glycol tetraacetic acid [EGTA]). Porcine brain microtubules were prepared from frozen aliquots of 5 mg/ml tubulin (Cytoskeleton, Denver, CO) in polymerization buffer (BRB80; 80 mM PIPES, pH 6.8, 1 mM EGTA, 2 mM MgCl₂, 3 mM GMP-CPP, 10% dimethyl sulfoxide (DMSO)) at 37° C. for 2-3 hours. The polymerized microtubules were then incubated at room temperature for several hours or overnight before use. The following day or several hours later the microtubules were spun down on a bench top centrifuge 14.00 RPM 10 min to pellet. The pellet was resuspended in polymerization buffer without DMSO. The Kif7 dimer and monomer preparations were made by mixing the Kif7 with the GIi2 or GIi2-SNAP for 1 hour prior to incubation with the microtubules. Kif7-dimer (0.36 mg/ml) plus GIi2 (0.2 mg/ml) in BRB plus 2 mM ADP, 2 mM MgcI2, Kif7-monomer (0.45 mg/mL) or Kif7 dimer plus GIi2_SNAP (0.30 mg/mL) plus BRB80 with 1 mM AMPPNP and 1 mM MgCl₂. All microtubule samples were prepared on 1.2/1.3 400-mesh grids (Electron Microscopy Services) Grids were glow-discharged before sample application. The cryo-samples were prepared using a manual plunger, which was placed in a homemade humidity chamber that varied between 80 and 90% relative humidity. […]

Kif27-DM-GFP (1-580aa) = molecular target: T2, Kif27-DM-GFP (1-580aa) (human, UniProt Q86VH2 1-580); experiment: TIRF microscopy on microtubules; 100 nM Gli2-ZF-SNAP-Alexa647 with 100 nM kinesin
T2 construct: range 1-580; Called dimeric; not shown: GFP tag, C-terminal by the name
T2 sequence (looked up): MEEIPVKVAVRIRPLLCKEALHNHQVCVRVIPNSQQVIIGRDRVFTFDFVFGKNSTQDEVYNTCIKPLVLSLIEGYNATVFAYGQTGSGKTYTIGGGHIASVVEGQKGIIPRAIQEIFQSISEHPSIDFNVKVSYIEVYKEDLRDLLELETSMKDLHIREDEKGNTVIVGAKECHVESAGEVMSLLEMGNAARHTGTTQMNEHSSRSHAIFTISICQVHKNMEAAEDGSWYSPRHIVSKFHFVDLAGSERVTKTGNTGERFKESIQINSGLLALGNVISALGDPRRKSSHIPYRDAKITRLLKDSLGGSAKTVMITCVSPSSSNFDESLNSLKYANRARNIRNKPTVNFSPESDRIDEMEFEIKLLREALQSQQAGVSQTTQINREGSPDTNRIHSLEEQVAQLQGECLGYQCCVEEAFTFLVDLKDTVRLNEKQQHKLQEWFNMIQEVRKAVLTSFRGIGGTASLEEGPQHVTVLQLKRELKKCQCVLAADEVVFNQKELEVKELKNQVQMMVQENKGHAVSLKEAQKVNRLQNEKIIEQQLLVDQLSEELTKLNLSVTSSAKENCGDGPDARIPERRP

FLAG-Kif7 (544-1343aa) = molecular target: T3, FLAG-Kif7 (544-1343aa) (human, UniProt Q2M1P5 544-1343); experiment: pull-down on anti-FLAG beads, anti-c-myc blot, Expi293F cells
T3 construct: Expressed in Expi293F cells for the pull-down; also called C-terminal half of Kif7; not shown: FLAG tag from pCMV-BICEP-4 (MCS1), N-terminal by the name
T3 sequence: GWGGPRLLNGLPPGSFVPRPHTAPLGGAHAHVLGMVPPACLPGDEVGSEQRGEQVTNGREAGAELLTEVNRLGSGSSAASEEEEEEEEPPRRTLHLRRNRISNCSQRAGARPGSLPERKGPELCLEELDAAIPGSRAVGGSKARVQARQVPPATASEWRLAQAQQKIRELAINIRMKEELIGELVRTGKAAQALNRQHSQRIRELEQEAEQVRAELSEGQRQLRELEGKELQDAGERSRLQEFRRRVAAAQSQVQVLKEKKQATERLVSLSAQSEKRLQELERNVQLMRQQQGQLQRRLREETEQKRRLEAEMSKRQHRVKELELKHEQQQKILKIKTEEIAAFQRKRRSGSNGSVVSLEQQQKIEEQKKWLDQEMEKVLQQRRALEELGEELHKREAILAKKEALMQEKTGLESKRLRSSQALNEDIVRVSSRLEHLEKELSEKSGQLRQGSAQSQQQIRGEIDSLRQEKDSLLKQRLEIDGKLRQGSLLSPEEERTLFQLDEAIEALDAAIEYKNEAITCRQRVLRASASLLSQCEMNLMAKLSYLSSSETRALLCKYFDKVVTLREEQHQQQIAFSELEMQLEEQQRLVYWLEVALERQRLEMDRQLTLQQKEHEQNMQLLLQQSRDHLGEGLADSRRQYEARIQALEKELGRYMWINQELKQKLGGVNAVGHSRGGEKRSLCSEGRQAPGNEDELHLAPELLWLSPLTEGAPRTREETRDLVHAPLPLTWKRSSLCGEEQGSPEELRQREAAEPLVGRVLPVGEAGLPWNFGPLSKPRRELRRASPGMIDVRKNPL
Source text: (§1) Immunoprecipitation (IP) using anti-FLAG magnetic beads. Input (cell lysate), FT (flow through), wash and beads samples were immunoblotted (IB) with anti c-Myc antibody to detect Gli2. […] The blots are representative images of a minimum of three repeats. Gli2-ZF mutants are as follows: ZF2-mut (H493A, R496A), ZF3-mut (H503A, R516A, K521A), ZF4-mut (R550A, K552A, R556A). Kif7-CC mutants are as follows: S1-mut (E500A, E501A, E502A, D505A), S2-mut (E511A, E515A), S3-mut1 (E526A, E529A) and S3-mut2 (E530A, R535A).
(§2) To narrow down the residues that participate in binding, we analyzed the model of the Kif7-SCC:Gli2-ZF complex using PDBsum server (De Beer et al., Nucleic acids research, 42, D292-D296, 2014). We performed alanine scanning mutagenesis of the charged residues on Gli2-ZF that came up as part of the binding interface in the PDBsum analysis and analyzed their binding with pull-down assay (FIG. 3D). […] We systematically mutated the residues to alanine and performed the pull-down assay with Gli2-ZF.

c-Myc-Gli2 (595-1568aa) = molecular target: T4, c-Myc-Gli2 (595-1568aa) (human, UniProt P10070 595-1568); experiment: as above
T4 construct: the end of the construct is meant as the C-terminus of the protein; also called C-terminal half of Gli2; not shown: c-myc tag from pCMV-BICEP-4 (MCS2), N-terminal by the name
T4 sequence (looked up): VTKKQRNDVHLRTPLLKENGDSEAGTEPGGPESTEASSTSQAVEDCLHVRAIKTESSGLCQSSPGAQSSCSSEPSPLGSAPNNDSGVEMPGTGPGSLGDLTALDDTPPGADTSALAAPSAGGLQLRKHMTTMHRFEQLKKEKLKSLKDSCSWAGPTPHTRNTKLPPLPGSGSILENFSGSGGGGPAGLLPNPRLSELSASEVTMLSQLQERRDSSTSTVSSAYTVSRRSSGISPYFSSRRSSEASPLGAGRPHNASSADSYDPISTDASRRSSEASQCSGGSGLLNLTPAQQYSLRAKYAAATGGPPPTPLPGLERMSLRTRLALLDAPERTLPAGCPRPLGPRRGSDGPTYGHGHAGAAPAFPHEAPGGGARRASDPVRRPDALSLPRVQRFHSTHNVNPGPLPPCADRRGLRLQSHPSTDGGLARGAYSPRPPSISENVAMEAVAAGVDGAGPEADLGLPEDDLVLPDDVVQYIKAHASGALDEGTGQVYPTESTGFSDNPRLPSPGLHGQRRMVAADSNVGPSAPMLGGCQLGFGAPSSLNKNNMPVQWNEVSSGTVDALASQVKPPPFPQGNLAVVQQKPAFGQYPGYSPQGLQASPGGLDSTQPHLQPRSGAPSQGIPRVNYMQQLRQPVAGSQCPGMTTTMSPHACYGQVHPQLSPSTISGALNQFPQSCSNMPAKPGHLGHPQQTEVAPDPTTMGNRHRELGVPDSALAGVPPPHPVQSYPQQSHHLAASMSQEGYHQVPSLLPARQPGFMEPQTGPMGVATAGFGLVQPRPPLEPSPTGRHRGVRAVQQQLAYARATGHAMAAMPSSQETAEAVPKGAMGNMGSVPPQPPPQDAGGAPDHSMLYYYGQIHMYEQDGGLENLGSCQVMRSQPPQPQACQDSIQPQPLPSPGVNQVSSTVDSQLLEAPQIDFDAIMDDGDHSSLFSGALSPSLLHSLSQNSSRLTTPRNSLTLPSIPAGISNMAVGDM
Source text: as §1, §2

B1: Gli2-ZF-SNAP (other, human, UniProt P10070 418-604, looked up)
chain: KEDLDRDDCKQEAEVVIYETNCHWEDCTKEYDTQEQLVHHINNEHIHGEKKEFVCRWQACTREQKPFKAQYMLVVHMRRHTGEKPHKCTFEGCSKAYSRLENLKTHLRSHTGEKPYVCEHEGCNKAFSNASDRAKHQNRTHSNEKPYICKIPGCTKRYTDPSSLRKHVKTVHGPDAHVTKKQRNDVH
modifications: Alexa 647 dye on the SNAP tag in the TIRF assays
notes: Labeled with Alexa 647 for TIRF microscopy; used unlabeled (as far as told) for cryo-EM; also called Gli2-ZF-SNAP-Alexa 647; Gli2-ZF-Alexa 647; not shown: C-terminal SNAP tag
binding result (Kif7-DM (1-543aa)): binds
binding result (Kif27-DM-GFP (1-580aa)): no binding

B2: c-Myc-Gli2 (1-594aa) (other, human, UniProt P10070 1-594, looked up)
chain: METSASATASEKQEAKSGILEAAGFPDPGKKASPLVVAAAAAAAVAAQGVPQHLLPPFHAPLPIDMRHQEGRYHYEPHSVHGVHGPPALSGSPVISDISLIRLSPHPAGPGESPFNAPHPYVNPHMEHYLRSVHSSPTLSMISAARGLSPADVAQEHLKERGLFGLPAPGTTPSDYYHQMTLVAGHPAPYGDLLMQSGGAASAPHLHDYLNPVDVSRFSSPRVTPRLSRKRALSISPLSDASLDLQRMIRTSPNSLVAYINNSRSSSAASGSYGHLSAGALSPAFTFPHPINPVAYQQILSQQRGLGSAFGHTPPLIQPSPTFLAQQPMALTSINATPTQLSSSSNCLSDTNQNKQSSESAVSSTVNPVAIHKRSKVKTEPEGLRPASPLALTQGQVSGHGSCGCALPLSQEQLADLKEDLDRDDCKQEAEVVIYETNCHWEDCTKEYDTQEQLVHHINNEHIHGEKKEFVCRWQACTREQKPFKAQYMLVVHMRRHTGEKPHKCTFEGCSKAYSRLENLKTHLRSHTGEKPYVCEHEGCNKAFSNASDRAKHQNRTHSNEKPYICKIPGCTKRYTDPSSLRKHVKTVHGPDAH
notes: Expressed in Expi293F cells for the pull-down; also called N-terminal half of Gli2; not shown: c-myc tag from pCMV-BICEP-4 (MCS2), N-terminal by the name
binding result (FLAG-Kif7 (544-1343aa)): no binding

B3: FLAG-Kif7 (1-543aa) (other)
chain: MGLEAQRLPGAEEAPVRVALRVRPLLPKELLHGHQSCLQVEPGLGRVTLGRDRHFGFHVVLAEDAGQEAVYQACVQPLLEAFFEGFNATVFAYGQTGSGKTYTMGEASVASLLEDEQGIVPRAMAEAFKLIDENDLLDCLVHVSYLEVYKEEFRDLLEVGTASRDIQLREDERGNVVLCGVKEVDVEGLDEVLSLLEMGNAARHTGATHLNHLSSRSHTVFTVTLEQRGRAPSRLPRPAPGQLLVSKFHFVDLAGSERVLKTGSTGERLKESIQINSSLLALGNVISALGDPQRRGSHIPYRDSKITRILKDSLGGNAKTVMIACVSPSSSDFDETLNTLNYASRAQNIRNRATVNWRPEAERPPEETASGARGPPRHRSETRIIHRGRRAPGPATASAAAAMRLGAECARYRACTDAAYSLLRELQAEPGLPGAAARKVRDWLCAVEGERSALSSASGPDSGIESASVEDQAAQGAGGRKEDEGAQQLLTLQNQVARLEEENRDFLAALEDAMEQYKLQSDRLREQQEEMVELRLRLELVRP
notes: Expressed in Expi293F cells for the pull-down; also called N-terminal half of Kif7; Kif7-DM; not shown: FLAG tag from pCMV-BICEP-4 (MCS1), N-terminal by the name
binding result (c-Myc-Gli2 (595-1568aa)): no binding

Source: patent publication US20230374088A1 (GENERAL HOSPITAL, published 2023)
